One test relates to HSV-2. The test is described as follows: Passive transfer in vivo protection assay, lethal HSV-2 challenge. More on the design: species or system mice. The settings on record: for Mice protected from lethal challenge: IgG2c version, overall results from 2 independent experiments; for Mice protected from lethal challenge / Protection against lethal HSV-2 challenge: passive transfer; for in vivo protection: Table 3 summary; for Protection against lethal HSV-2 challenge: as IgG2c, overall survival, epithelial and neurological assays. The procedure:
Mice were prime-boost immunized with ΔgD-2 and the spleens, draining lymph nodes or bone marrow were isolated. Germinal center (GC) B cells were then cultured on NB-21.2D9 cells (Nojima cultures). After culture, supernatants were screened for the presence of HSV-lysate binding IgG by ELISA. The V(D)J rearrangements amplified from selected GC B-cell cultures for the B-cell antigen receptor (BCR) repertoire analysis in GC B cell clones among individual mice were sequenced. Then, reconstituted antibodies from selected single GC B cell cultures and from single, bone marrow plasmacytes were evaluated for ability to activate the mFcγRIV in vitro and to protect mice in a passive transfer model.
Both IgG1 and IgG2c forms of 22D10, 33B8, and BMPC-23 antibodies (≥4 mg each) were assessed for reproducibility of in vivo protection assay, and any dependency on Ig isotype for protection. […] To test roles of Ig isotypes on ability to provide protection, IgG1 and IgG2c isotypes of these three antibodies were generated and assessed for ability to activate mFcγRIV signaling (as a measurement for ADCC), and for in vivo protection assay.

Test [1] has as its target glycoprotein B of HSV-1 (gB-1) (Human herpesvirus 1, UniProt P10211). In words: Luminex multiplex assay, binding to gB-1. To be noted: Table 3 summary. The procedure:
FIGS. 9A and 9B are graphs of median fluorescence intensity (MFI) versus IgG concentration (ng/ml), showing the binding of various recombinant antibodies to gB-1 as measured by Luminex multiplex assay.
BMPC-23 binds HSV-1 gB (gB-1). The gB-1 binding of the antibodies was determined by Luminex multiplex assay. Mixtures of antigen (gB-1)-conjugated microspheres (1,000 counts each) were added to each well of 96-well filter plates (Millipore). After washing with PBS containing 1% BSA, 0.05% Tween 20 and 0.05% NaN3, serially diluted recombinant antibodies (5E7, 19G7, 18G4, 22E10, 3A2, 17G3, 22D10, 32H6, 33B8, 25H7, BMPC-23, and S5V2-29) were added to the plates and incubated for 2 hours at room temperature, with mild agitation of the plates. Samples were diluted in PBS containing 1% cow milk, 1% BSA, 0.05% Tween 20 and 0.05% NaN3. After washing, PE goat anti-mouse IgG was added to the plates and incubated for 1 hour at room temperature with mild agitation. After washing, microspheres were resuspended in PBS containing 1% BSA, 0.05% Tween 20 and 0.05% NaN3 and fluorescent signals from each microsphere were measured in a Bio-Plex® 3D machine.
Finding gB-1 specific HSV antibodies. After Nojima culture (single B-cell culture), HSV-specific antibodies were cloned from germinal center B cells and tested for binding to HSV-1 gB-1 by Luminex multiplex assay as described above. FIGS. 9A and 9B show the gB-1 binding results for 10 antibodies in comparison with BMPC-23. With the exception of BMPC-23, the antibodies in Table 3 were derived from germinal center B cells (lymph nodes) taken 15-17 days after primary vaccination with ΔgD-2. BMPC-23 was derived from bone marrow plasmacytes taken 2 weeks post-boost with ΔgD-2. Nucleotide sequences and amino acid sequences for the heavy-chains and light chains are shown in Table 4, as are the amino acid sequences for the light chain and heavy chain CDR1, CDR2, and CDR3.

The subject of test [2] is HSV-2 G infected cell lysates. In words: ELISA binding of recombinant antibodies to HSV-2 G infected cell lysates. More on the design: species or system HSV-2 G strain. To be noted: for Binding of recombinant antibodies to HSV-2 G lysates: ELISA, recombinant antibodies expressed in Expi293F cells; for Binding to HSV-lysate: Table 3 summary. The procedure:
Binding of recombinant antibodies to HSV-2 G lysates was tested by ELISA. Both heavy and light chain V(D)J rearrangements were amplified from selected single B-cell culture wells (22D10, 32H6, 33B8, and 35H7) by standard RT-PCR. These cloned V(D)J rearrangements were introduced into expression vectors. Recombinant antibodies were obtained by co-transfection of these expression vectors into Expi293F cells. ≥4 mg of purified IgGs was obtained (not shown). […]
Briefly, mice were vaccinated with ΔgD-2 and then 16 days after vaccination, the draining, inguinal lymph nodes were harvested. GC B cells were isolated from these tissues and were cultured in Nojima cultures. Although overall cloning efficiency of GC B cells from these (shipped) tissues was lower than those from freshly isolated tissues (6% vs. 20%), 50 GC clones were obtained that were specific to HSV-2 G strain (HSV-2 G or HSV2-G) lysate. GC B cells from inguinal lymph nodes of mice vaccinated with ΔgD-2 were sorted directly into 96-well plates (1 cell/well). These GC B cells were then cultured in the presence of NB-21.2D9 feeder cells. After culture, presence of IgG was first determined by ELISA, and then the reactivity of culture supernatant IgG against HSV-2 G lysates (HSV-2 G) and uninfected Vero lysates were tested by ELISA.
Based on the obtained V(D)J sequences from each B-cell culture, paired heavy and light chains were re-expressed (as recombinant mouse IgG1 and IgG2c antibodies) in Expi293F cells (Kuraoka et al. Immunity 2016; DiLillo et al. Nature Medicine 2013). […] As expected, all recombinant antibodies reacted specifically with HSV-2 G lysates (FIG. 3). […] Binding of recombinant antibodies to HSV-2 G lysates was tested by ELISA. Both heavy and light chain V(D)J rearrangements were amplified from selected single B-cell culture wells (22D10, 32H6, 33B8, and 35H7) by standard RT-PCR. These cloned V(D)J rearrangements were introduced into expression vectors. Recombinant antibodies were obtained by co-transfection of these expression vectors into Expi293F cells. ≥4 mg of purified IgGs was obtained (not shown). […] These recombinant antibodies (≥4 mg each) were tested for identification of reacting antigen(s), in an in vitro FcγRIV activation assay (Promega FcγRIV ADCC Reporter Bioassay)(FIG. 4), and in vivo protection assay. […]
For orientation: ELISA stands for enzyme-linked immunosorbent assay.

The next test concerns uninfected Vero lysate. In words: ELISA binding to control uninfected Vero lysate. The procedure: Binding of recombinant antibodies to HSV-2 G lysates was tested by ELISA. Both heavy and light chain V(D)J rearrangements were amplified from selected single B-cell culture wells (22D10, 32H6, 33B8, and 35H7) by standard RT-PCR. These cloned V(D)J rearrangements were introduced into expression vectors. Recombinant antibodies were obtained by co-transfection of these expression vectors into Expi293F cells. ≥4 mg of purified IgGs was obtained (not shown).
Based on the obtained V(D)J sequences from each B-cell culture, paired heavy and light chains were re-expressed (as recombinant mouse IgG1 and IgG2c antibodies) in Expi293F cells (Kuraoka et al. Immunity 2016; DiLillo et al. Nature Medicine 2013). […] As expected, all recombinant antibodies reacted specifically with HSV-2 G lysates (FIG. 3). […] Binding of recombinant antibodies to HSV-2 G lysates was tested by ELISA. Both heavy and light chain V(D)J rearrangements were amplified from selected single B-cell culture wells (22D10, 32H6, 33B8, and 35H7) by standard RT-PCR. These cloned V(D)J rearrangements were introduced into expression vectors. Recombinant antibodies were obtained by co-transfection of these expression vectors into Expi293F cells. ≥4 mg of purified IgGs was obtained (not shown). […]

The target in test [3] is human herpesvirus glycoprotein B (gB) (Human herpesvirus 2, UniProt P08666). In words: Immunoprecipitation-Mass Spectrometry (IP-MS) target identification. The format is binding. The procedure:
FIG. 7A-7B. Immunoprecipitation-Mass Spectrometry (IP-MS) was performed to identify the binding targets of 22D10, 33B8, and BMPC-23 antibodies.
IP-MS was performed to identify the targets of 22D10, 33B8, and BMPC-23 antibodies.

The values below come from patent US12459987B2, “Monoclonal antibodies for prevention and treatment of herpes simplex viral infections” (priority 2019, dated 2025).

Entries after “also recorded” stand apart in the source; their conditions may differ.

B1: 22D10: monoclonal antibody from germinal center B cell; IgH SEQ ID NO: 24, IgL SEQ ID NO: 26 (antibody, V domains shown)
VH: DVQLQESGPALVKPSQTVSLTCTVTGYSITNGNHWWNWIRQVSGSKLEWLGYIRSSGSSDSNPSLKSRISITRDTSKNQLFLHLNSMTTEDIATYYCARGGGLRHYFDYWGQGTTLTVSSA
VL: DIQMTQSPASLSASVGDTVTITCRASGNIHNYLAWYHQKQGKSPQLLVYHAETLTDGVPSRFSGSGSGTQYSLKINSLQPEDFGSYYCQHFWSTPYTFGGGTKLEIKR
modifications: 22D10 heavy chain; 22D10 light chain
With B1, in the test with HSV-2, the “Mice protected from lethal challenge” value is 5/10, the in vivo protection entry was “Yes” and the “Protection against lethal HSV-2 challenge” value is on record as “significant protection; also recorded: provides protection”. For the same molecule, the Target antigens entry in test [1] is on record as “(not gB)”. Moreover, in test [2], the “Binding of recombinant antibodies to HSV-2 G lysates” value is given as “Retention of HSV-2 G lysate-binding” and the “Binding to HSV-lysate” value is on record as “Yes”. Further, the “Binding to control, uninfected Vero lysate” value in the test with uninfected Vero lysate is on record as “did not bind”. In addition, the “Binding target identified by IP-MS” value in test [3] is on record as “human herpesvirus glycoprotein B (gB)”.

B2: 33B8: monoclonal antibody from germinal center B cell; IgH SEQ ID NO: 28, IgL SEQ ID NO: 30 (antibody, V domains shown)
VH: EVKLVESGGGLVQPGGSLSLSCATSGFTFTDYYMNWVRQPPGKALEWLGFIRNKANGYTTEYSASVKGRFTISRDNSQSILYLQMNSLRAEDSATYYCACGNYVGYAMDYWGQGTSVTVSSA
VL: DIVMSQSPSSLAVSAGEKVTMSCKSSQSLLNSRTRKNYLAWYQQKPGQSPKLLIYWASTRESGVPDRFTGSGSGTDFTLTISSVQAEDLAVYYCKQSYNLYTFGGGTKLEIKR
modifications: 33B8 heavy chain; 33B8 light chain
B2: in the test with HSV-2, the “Mice protected from lethal challenge” value is reported as 4/10, the in vivo protection entry was “Yes” and the “Protection against lethal HSV-2 challenge” value is “significant protection; also recorded: provides protection”. In test [1], the Target antigens entry is “(not gB)”. Moreover, in test [2], the “Binding of recombinant antibodies to HSV-2 G lysates” value is reported as “Retention of HSV-2 G lysate-binding” and the “Binding to HSV-lysate” value was “Yes”. Also, the “Binding to control, uninfected Vero lysate” value with uninfected Vero lysate was “did not bind”. For the same molecule, the “Binding target identified by IP-MS” value in test [3] was “human herpesvirus glycoprotein B (gB)”.
